Experiments:
[1] = molecular target: BAR–SH3 FRET reporter (IRSp53 construct BAR–SH3 S452C, labelled with fluorescein maleimide and rhodamine maleimide) (human); experiment: other fluorescence titration
[2] = molecular target: Eps8–IRSp53 complex (BAR–SH3 FRET reporter saturated with Eps8) (human) (UniProt Q12929); experiment: other fluorescence titration
[3] = molecular target: IRSp53 BAR–SH3 double mutant P278D P281D (human); experiment: ITC
[4] = molecular target: IRSp53 construct BAR–SH3 (human); experiment: ITC
[5] = molecular target: Cdc42_(G12V)–IRSp53 complex (BAR–SH3 FRET reporter titrated first with GMP-PNP–Cdc42_(G12V)) (human) (UniProt P60953); experiment: other fluorescence titration

Sequence of Human Eps8 (Q12929 whole entry): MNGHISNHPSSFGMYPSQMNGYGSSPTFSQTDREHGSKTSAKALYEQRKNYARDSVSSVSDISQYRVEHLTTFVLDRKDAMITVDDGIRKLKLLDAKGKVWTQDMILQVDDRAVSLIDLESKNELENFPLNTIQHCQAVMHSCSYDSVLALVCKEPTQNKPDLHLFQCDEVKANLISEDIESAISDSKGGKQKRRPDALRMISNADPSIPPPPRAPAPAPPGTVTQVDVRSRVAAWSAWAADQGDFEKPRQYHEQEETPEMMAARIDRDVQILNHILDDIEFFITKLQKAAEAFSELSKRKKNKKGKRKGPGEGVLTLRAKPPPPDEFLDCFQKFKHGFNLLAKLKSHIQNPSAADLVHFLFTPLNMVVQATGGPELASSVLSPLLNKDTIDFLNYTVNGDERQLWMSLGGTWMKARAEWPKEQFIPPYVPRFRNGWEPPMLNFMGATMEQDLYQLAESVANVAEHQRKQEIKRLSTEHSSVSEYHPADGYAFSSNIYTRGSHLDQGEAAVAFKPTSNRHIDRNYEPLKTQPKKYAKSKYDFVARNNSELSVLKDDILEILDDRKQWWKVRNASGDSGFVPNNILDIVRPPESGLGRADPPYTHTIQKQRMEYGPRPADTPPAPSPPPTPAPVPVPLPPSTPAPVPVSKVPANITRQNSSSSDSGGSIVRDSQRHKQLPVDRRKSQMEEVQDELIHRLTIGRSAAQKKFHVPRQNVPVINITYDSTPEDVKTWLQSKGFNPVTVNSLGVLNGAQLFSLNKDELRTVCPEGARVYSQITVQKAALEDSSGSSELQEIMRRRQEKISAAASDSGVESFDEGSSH

Substance | Kd [1] | Kd [2] | Kd [3] | Kd [4] | Kd [5]
Human Cdc42 residues 1–178, constitutively active mutant G12V (from UniProt P60953 1-178) (domain or fragment) | 2.4 µM | 10.7 µM | 10.7 µM | 4.7 µM | –
Human Eps8 (from UniProt Q12929 1-822) (natural protein) | – | – | – | – | 1.1 µM

Source: article PMC4091835
